The values below come from article PMC5512444 (Structure (London, England : 1993), 2017).

The target in assay [1] is Ube2g2 (Homo sapiens) (UniProt P60604). The note with it: cited from earlier work.
The target is the same in assay [2]. The following applies: cited from earlier work. This is another data set of the same source.
Assay [3] has the same target. The note with it: cited from earlier work. This is another data set of the same source.
Assay [4] shares this target. The note with it: cited from earlier work. The source holds these as a separate data set.
The target in another assay is T1, Y103G-Ube2g2 (human, UniProt P60604 1-165, Y103G).
T1 sequence: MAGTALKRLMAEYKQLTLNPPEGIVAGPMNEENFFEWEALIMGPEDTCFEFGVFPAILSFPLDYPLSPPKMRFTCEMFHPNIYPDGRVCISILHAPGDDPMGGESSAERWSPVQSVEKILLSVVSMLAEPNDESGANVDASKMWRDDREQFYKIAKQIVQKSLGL
Kind of assay: ITC. A general note: ITC needs no label: the signal is the heat of the interaction.

Another assay has as its target T2, Ube2g2 (wild type) (human, UniProt P60604 1-165).
T2 sequence: T1 sequence with G103Y
As to the kind of experiment: NMR 15N heteronuclear NOE of the complex compared with the free protein.

For the next assay, the target named is T3, C89K-Ube2g2 (human, UniProt P60604 1-165, C89K).
T3 sequence: T1 sequence with C89K, G103Y
As to the kind of experiment: NMR 15N CPMG relaxation dispersion of the complex compared with the free protein.

Residue numbers refer to the chain shown, from its start. Like-named read-outs stand apart in the source and are kept apart here.

gp78 RING (from UniProt Q9UKV5): the values for the dissociation constant Kd with Ube2g2 (Homo sapiens) [1] and with Ube2g2 (Homo sapiens) [2] were 144000 nM and 3000 nM, respectively.

Regarding gp78 RING-G2BR (from UniProt Q9UKV5), in the assay with Ube2g2 (Homo sapiens) [3], the Kd is 38 nM.

Take gp78 G2BR (from UniProt Q9UKV5): the Kd with Ube2g2 (Homo sapiens) [4] was 21 nM.

On to WSADERQRMLVQRKDELLQQARKRFLNK [G2BR peptide of gp78 (Ube2g2 binding region)], for which, in the assay with Y103G-Ube2g2, the Kd worked out at 59 ± 6 nM, the dH was -39.5 ± 0.4 kcal/mol and the “stoichiometry N” value came to 0.95. Besides, the binding result in the assay with Ube2g2 (wild type) is reported as “binds”.

B1: RING-G2BR fusion protein of gp78 (domain or fragment, human)
chain: KNYLRVVGNMEARFAVATPEELAVNNDDCAICWDSMQAARKLPCGHLFHNSCLRSWLEQDTSCPTCRMSLNIADNNRVREEGGGGGGGSSGSSGGSGGGSGSSSGGGGGSGGGSGGGGGGGADERQRMLVQRKDELLQQARKRFLNK
For B1, the binding result with C89K-Ube2g2 is on record as “binds”.

In general, Kd refers to the concentration at which binding is half-saturated. Usually stoichiometry N stands for the number of molecules, sites or subunits per partner or assembly.
